Laboratory results reported in patent US20230104578A1, “ANTI-ADRENOMEDULLIN (ADM) ANTIBODY OR ANTI-ADM ANTIBODY FRAGMENT OR ANTI-ADM NON-IG SCAFFOLD FOR USE IN THERAPY OR PREVENTION OF SHOCK” (ADRENOMED AG, priority 2020, published 2023).

How the values were obtained:
[1] = target: human recombinant adrenomedullin receptor (CRLR+RAMP3) (human)
[2] = target: human recombinant adrenomedullin receptor (CRLR+RAMP3) (human); remark: listed apart in the source

Substance: human ADM 22-52 (peptide)
- IC50 (read off the curve); cAMP (HTRF) induced by 0.67 nM mADM, % inhibition [1]: 3000 nM
- IC50 (read off the curve); cAMP (HTRF) induced by 5.63 nM hADM, % inhibition [2]: 300 nM
